In series [1] the target is T1, Interleukin-8 (IL8, CXCL8), C-terminal His-tagged (Homo sapiens, UniProt P10145 SEQ:1-72). The series is described as follows: TR-FRET; GAG-site binder, displaced by heparan sulfate IC50 9 uM. Conditions: tags: C-terminal 6xHis (Sino Biological); label: Alexa Fluor 647. The text has this:
Differences between these TR-FRET values (Table 10) and those from the bead binding assay (Table 9) may be due to a different limiting concentration of IL8. […] It is also possible that differences may arise due to TR-FRET being a homogenous solution binding assay, while bead binding has immobilized ligand and is non-homogenous, so bound aptamers may dissociate during analysis resulting in higher calculated Kd values.
Aptamer 1 (C6NH₂-[…]-idT, where C and U are 2′F, A and G are 2′OH; C6NH₂ is a hexylamino linker; and idT is a 3′ inverted deoxythymidine residue (SEQ ID NO: 75 with modifications)) was used as a positive control for an aptamer that binds to the GAG binding site. Aptamers 1, 3, 6, 8 and 11 were labeled with ALEXAFLUOR® 647 as described in Example 3. […] Briefly, 2-fold dilutions of heparan sulfate (Sigma Aldrich) were made in TR-FRET Buffer (50 mM MOPS, pH 7.4, 125 mM NaCl, 5 mM KCl, 50 μM CHAPS, 0.1 mg/mL BSA, 1 mM CaCl₂ and 1 mM MgCl₂). […] heparan sulfate or control solution were added to […] a mixture of 10 nM C-His-tagged-IL8 (Sino Biological), 5 nM anti-His-Eu (Perkin Elmer), and 30 nM AlexaFluor® 647-labeled aptamer in TR-FRET in a black low volume 384-well plate (Greiner). The plate was covered with a plate seal and subsequently incubated in the dark for 1 hour at room temperature. The plate was read on a Biotek CYTATION™ 5 plate reader. […]
On the technique in general: Time-resolved FRET reads energy transfer from a long-lived donor to a nearby acceptor.

In series [2] the target is T1, Interleukin-8 (IL8, CXCL8), C-terminal …. Description: flow; appreciable binding, bead-immobilized IL8, 10 and 100 nM aptamer. Particulars: tags: C-terminal 6xHis (Sino Biological); label: Alexa Fluor 647. The protocol: (§1) Chemically synthesized aptamers (Table 8) were labeled with ALEXA FLUOR® 647 and were used to test binding to IL8 in a bead based assay using flow cytometry. In brief, fluorescently labeled aptamers were heated at 90° C. for 3 minutes in SB1T and were allowed to cool at room temperature for 5 minutes, after which they were incubated with c-his-IL8, immobilized on DYNABEADS® His-Tag Isolation and Pulldown beads in SB1T buffer containing 0.1% BSA, 1 μg/μl ssDNA and 1 μg/μl heparin sulphate at two different aptamer concentrations: 10 nM and 100 nM. Following incubation for 30 minutes at 37° C., the beads were washed three times with SB1T, re-suspended in SB1T buffer and analyzed by flow cytometry. […] Negligible or complete lack of binding seen in cases of some aptamers (e.g., Aptamers 4, 9, 10, and 16) could be due to the removal of the constant regions. No binding was observed when similar experiments were performed in the absence of protein (data not shown).

Series [3] shares this target. The series is described as follows: TR-FRET, 5 nM IL8, protein-limited; bead flow 18 nM. Particulars: tags: C-terminal 6xHis (Sino Biological); label: Alexa Fluor 647. As to the method: (§2) Aptamers were synthesized and labeled with ALEXA FLUOR® 647, and binding to IL8 was quantified by Time-Resolved Fluorescence Resonance Energy Transfer (TR-FRET). Briefly, 2-fold dilutions of thermally equilibrated aptamers were made in TR-FRET Buffer (50 mM MOPS, pH 7.4, 125 mM NaCl, 5 mM KCl, 50 μM CHAPS, 0.1 mg/mL BSA, 1 mM CaCl₂ and 1 mM MgCl₂). […] of aptamer or control solution was added to 10 μL of 15 nM C-His-tagged-IL8 (Sino Biological) in a black wall half-area plate (Corning). In the same plate, 10 μl of aptamer solution was added to 10 μl of TR-FRET buffer alone to use for background subtraction. 10 μl of 15 nM anti-His-Eu (Perkin Elmer) was added to each well, the plate was covered with a plate seal and subsequently incubated in the dark for 1 hour at room temperature. The plate was read on a Biotek CYTATION™ 5 plate reader. Samples were excited at 330 nm and fluorescent values were collected at 665 nm. […] Apparent Kd values obtained for the fits are calculated as the concentration of half-maximal binding and shown in Table 10, and fit curves as FIG. 6. […] It is also possible that differences may arise due to TR-FRET being a homogenous solution binding assay, while bead binding has immobilized ligand and is non-homogenous, so bound aptamers may dissociate during analysis resulting in higher calculated Kd values.

Series [4] has the same target. The series is described as follows: flow; bead-immobilized IL8, 37 C. Particulars: tags: C-terminal 6xHis (Sino Biological); label: Alexa Fluor 647. As to the method: as §1
Flow cytometry was used to measure the apparent binding affinity for Aptamer 2, Aptamer 3, Aptamer 5, Aptamer 6, Aptamer 8, Aptamer 11, Aptamer 12, Aptamer 13, Aptamer 14, Aptamer 20, Aptamer 22, Aptamer 23, and Aptamer 25 using bead immobilized c-his-IL8. […] Following incubation for 30 minutes at 37° C., the beads were washed and fluorescence was measured by flow cytometry. […]

For series [5] the target is unchanged. The series is described as follows: TR-FRET, 1 mM Ca, 1 mM Mg, room temperature. Particulars: tags: C-terminal 6xHis (Sino Biological); label: Alexa Fluor 647. As to the method: as §2
The target is the same in series [6]. Description: competition; competition TR-FRET; S3 mutant. Particulars: tags: C-terminal 6xHis (Sino Biological). The protocol:
(§3) To better understand the sequence requirements and to confirm the stem structures of members of the Aptamer 3 family as determined from sequence covariation analysis from both the primary and secondary (degenerate) selections, a series of variants which included mutations and deletions to the predicted stems were synthesized and screened (Table 24). Activity of each of these variants were tested using a time resolved competition TR-FRET assay in which the labeled parent Aptamer 3 was competed with increasing concentrations of unlabeled variants for binding to IL8 (FIG. 14). Briefly, 2-fold dilutions of thermally equilibrated aptamers were made in TR-FRET Buffer (50 mM MOPS, pH 7.4, 125 mM NaCl, 5 mM KCl, 50 μM CHAPS, 0.1 mg/mL BSA, 1 mM CaCl₂, and 1 mM MgCl₂). 5 μL of aptamer or control solution was added to 5 μl mix of 10 nM C-terminal His-tagged-IL8, 60 nM ALEXA FLUOR® 647-labeled Aptamer, and 5 nM anti-His-Eu (Perkin Elmer) in a black wall low volume 384 well plate (Greiner). For control, 5 μl of 1000-fold excess of unlabeled parent aptamer or 5 μl TR-FRET buffer alone was added to the mix of ALEXA FLUOR® 647-labeled aptamer, His-IL8, and anti-His-Eu. The plate was covered with a plate seal and subsequently incubated in the dark for 1 hour at room temperature. The plate was read on a Biotek CYTATION™ 5 plate reader. […]

The target is the same in series [7]. Description: competition; competition TR-FRET; S3 extended. Particulars: tags: C-terminal 6xHis (Sino Biological). As to the method:
as §3

Series [8] has the same target. The series is described as follows: TR-FRET, 5 nM IL8, protein-limited; bead flow 13 nM. Particulars: tags: C-terminal 6xHis (Sino Biological); label: Alexa Fluor 647. As to the method: as §2
Series [9] shares this target. The series is described as follows: TR-FRET, 5 nM IL8, protein-limited. Particulars: tags: C-terminal 6xHis (Sino Biological); label: Alexa Fluor 647.
For series [10] the target is unchanged. Description: TR-FRET; bead flow 20 nM. Conditions: tags: C-terminal 6xHis (Sino Biological); label: Alexa Fluor 647. As to the method:
as §2

Series [11] shares this target. The series is described as follows: TR-FRET, 500 pM IL8; Table 10 gives 2 nM; bead flow 13 nM. Particulars: tags: C-terminal 6xHis (Sino Biological); label: Alexa Fluor 647; stem-loop (3 stems, 4 loops). As to the method: Under these assay conditions, the ability to measure the affinity accurately is limited by the input IL8 protein concentration, and the apparent Kd under these protein-limiting conditions was determined to be 8 nM.

Series [12] shares this target. The series is described as follows: competition; competition TR-FRET; S2 disrupted. Conditions: tags: C-terminal 6xHis (Sino Biological). As to the method: as §3
For series [13] the target is unchanged. The series is described as follows: TR-FRET; bead flow 16 nM. Particulars: tags: C-terminal 6xHis (Sino Biological); label: Alexa Fluor 647; stem-loop (Aptamer 3 family). As to the method: as §2
For series [14] the target is unchanged. The series is described as follows: competition; competition TR-FRET. Particulars: tags: C-terminal 6xHis (Sino Biological); stem-loop.
Series [15] has the same target. Description: TR-FRET; bead flow 7 nM. Particulars: tags: C-terminal 6xHis (Sino Biological); label: Alexa Fluor 647. The protocol: as §2

Substitutions are numbered along the chain they refer to.

B1: Aptamer 1 (ssRNA)
RNA: GGGGGCUUAUCAUUCCAUUUAGUGUUAUGAUAACC
modifications: 2'-F C and U, 2'-OH A and G, 5' C6NH2, 3' idT
As usually defined, the Kd is the constant that tells how readily two partners part at equilibrium. The low end stands for higher affinity, the high end for lower affinity. As for B1, the Kd in series [1] was found to be 3 nM.

B2: Aptamer 25 (ssRNA)
RNA: UCAUGGGUUGCCAACCGGCCGUGUAUGUACGUACAU
modifications: 2'-F G, 2'-OMe A/C/U, 5' C6NH2, 3' idT
Take B2: the binding result in series [2] is recorded as “binds”.

B3: Aptamer 6 (ssRNA)
RNA: UCAGGCUGAAAAGUGAGCUAUAAUGUCCUGAUUGAU
modifications: 2'-F G, 2'-OMe A/C/U, 5' C6NH2, 3' idT
B3 gave a Kd in series [3] of 2 nM.

B4: Aptamer 20 (ssRNA)
RNA: UGACUGCGGUCGCAAGUUACGGAUUUGCCGCCCCGU
modifications: 2'-F G, 2'-OMe A/C/U, 5' C6NH2, 3' idT
B4 displayed a Kd in [4] of 15 nM.

B5: Aptamer 19 (ssRNA)
RNA: UGUCGCCCUACGUAAACCGCUAUUUGCGACUGCGGU
modifications: 2'-F G, 2'-OMe A/C/U, 5' C6NH2, 3' idT
Molecule B5 showed a Kd in [5] of 4 nM.

B6: Aptamer 89 (ssRNA)
RNA: GGCGACGGUAGACUACGGGUAGAGUGACCGCGCC
modifications: 2'-F G, 2'-OMe A/C/U, 5' C6NH2, 3' idT
For B6, in series [6], the binding signal was more than 10 fold worse than Aptamer 3.

B7: Aptamer 90 (ssRNA)
RNA: B6 RNA with C13U, U14C, A23G
modifications: 2'-F G, 2'-OMe A/C/U, 5' C6NH2, 3' idT
In series [7], B7 had a binding signal of more than 10 fold worse than Aptamer 3.

B8: Aptamer 11 (ssRNA)
RNA: UCCGGUUGCUGAGAUGUGAGAUUAAUGUCCACCGUU
modifications: 2'-F G, 2'-OMe A/C/U, 5' C6NH2, 3' idT
B8 yielded a Kd in series [8] of 2 nM.

B9: Aptamer 7 (ssRNA)
RNA: UUAUUGCGGCCCGAUUUACCGAAUUUGCCGUCCGGU
modifications: 2'-F G, 2'-OMe A/C/U, 5' C6NH2, 3' idT
Molecule B9 came in with a Kd in series [9] of 2 nM.

B10: Aptamer 5 (ssRNA)
RNA: UCGUGAAGGGCGAUUCUGGUGCGUGUUCCCUCGCGU
modifications: 2'-F G, 2'-OMe A/C/U, 5' C6NH2, 3' idT
The molecule B10 gave a Kd in [10] of 10 nM.

B11: Aptamer 3 (ssRNA)
RNA: UGAUGACGGUAGAUUACGGGUAGAGUGACCGCAUCU
modifications: 2'-F G, 2'-OMe A/C/U, 5' C6NH2, 3' idT
B11 returned a Kd in series [11] of 0.214 nM.

B12: Aptamer 188 (ssRNA)
RNA: B11 RNA with G8C, G9C
modifications: 2'-F G, 2'-OMe A/C/U, 5' C6NH2, 3' idT
In the case of B12, the binding signal in series [12] was more than 10 fold worse than Aptamer 3.

B13: Aptamer 12 (ssRNA)
RNA: UUGGCCACAGUAGAUUUCGGUGCGUGUGACUGGGCU
modifications: 2'-F G, 2'-OMe A/C/U, 5' C6NH2, 3' idT
Regarding B13, the dissociation constant Kd in series [13] is 12 nM.

B14: Aptamer 42 (ssRNA)
RNA: GCGACGGUAGAUUACGGGUAGAGUGACCGCGC
modifications: 2'-F G, 2'-OMe A/C/U, 5' C6NH2, 3' idT
For the molecule B14, the binding signal in series [14] is approximately 1.4 fold worse than Aptamer 3.

B15: Aptamer 22 (ssRNA)
RNA: UCUGAAUCGGCUGAAACGGGAGCAUUAAUGUCCGGU
modifications: 2'-F G, 2'-OMe A/C/U, 5' C6NH2, 3' idT
B15: the Kd in series [15] turned out to be 15 nM.
